# Data as given in PMC7545998, “A snake toxin as a theranostic agent for the type 2 vasopressin receptor” (Theranostics, 2020).
# Like-named read-outs stand apart in the source and are kept apart here.
# T1: Type 2 vasopressin receptor (V2R) (Rattus norvegicus, UniProt Q00788)
# T1 chain: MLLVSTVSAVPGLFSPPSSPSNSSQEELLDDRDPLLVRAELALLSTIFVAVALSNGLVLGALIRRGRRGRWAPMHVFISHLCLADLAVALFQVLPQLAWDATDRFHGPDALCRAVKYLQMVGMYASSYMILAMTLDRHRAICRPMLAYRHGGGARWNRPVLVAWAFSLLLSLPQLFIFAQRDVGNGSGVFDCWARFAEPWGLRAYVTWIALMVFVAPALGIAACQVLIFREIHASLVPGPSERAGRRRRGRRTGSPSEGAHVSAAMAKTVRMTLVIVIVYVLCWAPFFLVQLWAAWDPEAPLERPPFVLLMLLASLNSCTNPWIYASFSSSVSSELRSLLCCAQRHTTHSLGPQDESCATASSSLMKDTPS
# Experiments:
# [1] = in rats; cited from earlier work
# Source text: The intrinsic qualities needed to develop a good in vivo contrast agent are high molecular selectivity so as to label only the selected target, a high affinity, so that a low dose of the tracer can be injected, quick blood elimination to reduce background noise and long-term residence in the targeted organ. […] As a peptide, MQ1 is simple to engineer. […] We exemplified this statement by generating the first PET agent specific to V2R and two highly efficient spe ...
# [2] = system: porcine kidney epithelial cells LLC-pk1; assay: Confocal imaging of endogenous V2R in LLC-pk1 cells; format: cell-based; conditions: 1 µM, 30-min pre-incubation
# Experimental: In cells endogenously expressing V2R, such as porcine kidney epithelial cells LLC-pk1, labeling of V2R with AFDye-488-MQ1 and Cy5.5-MQ1 (100 nM) was performed with either fresh or PFA-fixed cells (Figures 7A and B). […] In the pathophysiological context, three renal cancer cell lines (CAKI-2, ACHN and A498 [38]) known to express V2R were tested. […] The presence of V2R, at the cell membrane level, fluctuated as a function of cell density and the number of cell divisions, whatever the cell line used. […] To our knowledge, this is the first specific ligand labeling of V2R in non-permeabilized cancer cells.
# Freshly dissociated CHO, LLC-PK1 or renal cancer cell lines expressing vasopressin receptors were seeded on 12-mm glass coverslips pre-coated with poly-ornithine, cultured for 48 h before incubation in DMEM, 0.2 mg/mL BSA, 25 mM HEPES, pH 7.4 for 1 h at 12°C or 30 min at 22 °C with fluorescent analogues in the absence or presence of non-fluorescent ligands (30-min pre-incubation). After 3 washes with cold PBS, the cells were finally fixed in 4% PFA overnight at 4 °C and mounted with Mowiol. The fluorescent cells were imaged using a Zeiss LSM510 Meta confocal microscope equipped with a ×63 (NA 1.4) oil immersion objective. For excitation, available laser rays were 488 and 633 nm and emission signals were collected in multitracking mode with appropriate band pass filters. […]
# [3] = cited from earlier work
# Experimental: Aprotinin and bikunin are two Kunitz peptides. Aprotinin is used clinically in acute pancreatitis, shock syndromes and hyperfibrinolytic hemorrhage. Bikunin is a protease Kunitz inhibitor that inhibits the invasiveness of tumor cells of various histological origins. Aprotinin [54] and bikunin [55] have similar T1/2α of 0.7 and 0.85 h and T1/2β of 7 and 6.4 h, respectively.
# [4] = target: T1, Type 2 vasopressin receptor (V2R); assay: [3H]AVP competition radioligand binding
Molecule,T1/2α [3] [min],T1/2β [3] [min],also measured
"NC(=O)CC[C@@H]1NC(=O)[C@H](Cc2ccccc2)NC(=O)[C@H](Cc2ccc(O)cc2)NC(=O)[C@@H](N)CSSC[C@@H](C(=O)N2CCC[C@H]2C(=O)N[C@@H](CCCN=C(N)N)C(=O)NCC(N)=O)NC(=O)[C@H](CC(N)=O)NC1=O [AVP, arginine-vasopressin]",–,–,T1/2α [1]: 0.9 min; T1/2β [1]: 8 min
"CCOc1ccc2c(c1)C1(CCC(OCCN3CCOCC3)CC1)C(=O)N2S(=O)(=O)c1ccc(C(=O)NC(C)(C)C)cc1OC (centres unmarked) [SR121463, reference compound]",–,–,effect on labeling by AFDye-488-MQ1 and Cy5.5-MQ1 [2]: inhibited the labeling
Aprotinin [reference compound],42,420,–
"bikunin: protease Kunitz inhibitor that inhibits the invasiveness of tumor cells (protein, UniProt P02760 206-352, looked up, Inter-alpha-trypsin inhibitor light chain) Inter-alpha-trypsin inhibitor …: AVLPQEEEGSGGGQLVTEVTKKEDSCQLGYSAGPCMGMTSRYFYNGTSMACETFQYGGCMGNGNNFVTEKECLQTCRTVAACNLPIVRGPCRAFIQLWAFDAVKGKCVLFPYGGCQGNGNKFYSEKECREYCGVPGDGDEELLRFSN",51,384,–
Mambaquaretin (MQ1) (protein) RPSFCNLPVKPGPCNGFFSAFYYSQKTNKCHSFTYGGCKGNANRFSTIEKCRRTCVG,–,–,Ki [4]: 7.7 nM
